This assay deals with SpyCatcher::HBsAg VLP (hepatitis B surface antigen genetically fused to SpyCatcher) (Streptococcus pyogenes | hepatitis B virus). The assay is described as follows: covalent (isopeptide) coupling, SDS-PAGE with Coomassie staining and densitometry; SpyCatcher::HBsAg VLP incubated with Pfs25::SpyTag at molar ratio 1.5, 0.5 or 0.1, 3 h to overnight at room temperature, with 10x reaction buffer (40 mM Na2HPO4, 200 mM sodium citrate, pH 6.2); dialysed (100 kDa cut-off) against TBS; conjugation efficiency = % of total SpyCatcher::HBsAg coupled to Pfs25::SpyTag.

Regarding Pfs25::SpyTag (Pfs25-SpyTag-Ctag), the conjugation efficiency (% of total SpyCatcher::HBsAg coupled to Pfs25::SpyTag) at molar ratio 0.1 came to 10%, the conjugation efficiency (% of total SpyCatcher::HBsAg coupled to Pfs25::SpyTag) at molar ratio 0.5 was 50% and the conjugation efficiency (% of total SpyCatcher::HBsAg coupled to Pfs25::SpyTag) at molar ratio 1.5 is > 90%.

The values are drawn from paper PMC6921968.
